# Data published in IntAct's records for PubMed 24417819.
# B1: Tetratricopeptide repeat protein 7A (Homo sapiens), Q9ULT0 (parent)
# chain: MAAKGAHGSYLKVESELERCRAEGHWDRMPELVRQLQTLSMPGGGGNRRGSPSAAFTFPDTDDFGKLLLAEALLEQCLKENHAKIKDSMPLLEKNEPKMSEAKNYLSSILNHGRLSPQYMCEAMLILGKLHYVEGSYRDAISMYARAGIDDMSMENKPLYQMRLLSEAFVIKGLSLERLPNSIASRFRLTEREEEVITCFERASWIAQVFLQELEKTTNNSTSRHLKGCHPLDYELTYFLEAALQSAYVKNLKKGNIVKGMRELREVLRTVETKATQNFKVMAAKHLAGVLLHSLSEECYWSPLSHPLPEFMGKEESSFATQALRKPHLYEGDNLYCPKDNIEEALLLLLISESMATRDVVLSRVPEQEEDRTVSLQNAAAIYDLLSITLGRRGQYVMLSECLERAMKFAFGEFHLWYQVALSMVACGKSAYAVSLLRECVKLRPSDPTVPLMAAKVCIGSLRWLEEAEHFAMMVISLGEEAGEFLPKGYLALGLTYSLQATDATLKSKQDELHRKALQTLERAQQLAPSDPQVILYVSLQLALVRQISSAMEQLQEALKVRKDDAHALHLLALLFSAQKHHQHALDVVNMAITEHPENFNLMFTKVKLEQVLKGPEEALVTCRQVLRLWQTLYSFSQLGGLEKDGSFGEGLTMKKQSGMHLTLPDAHDADSGSRRASSIAASRLEEAMSELTMPSSVLKQGPMQLWTTLEQIWLQAAELFMEQQHLKEAGFCIQEAAGLFPTSHSVLYMRGRLAEVKGNLEEAKQLYKEALTVNPDGVRIMHSLGLMLSRLGHKSLAQKVLRDAVERQSTCHEAWQGLGEVLQAQGQNEAAVDCFLTALELEASSPVLPFSIIPREL
# Variants of: B1
# Settings: with PI4K2A
row,Variant,effect of a mutation on the interaction
1,E71K,decreasing interaction
2,A832T,decreasing interaction
